The target in assay [1] is first-generation PSMA-targeting Pz1 CAR. Nature of the assay: flow cytometry on CAR+ PG13 fibroblasts, FL2-H PE against FL1-H FITC (no staining), live gate, 9029 events; lower right panel, taken as Pz1 from the panel order of FIG. 18A and 18C; first panel (PG13 sample line) in the same gate: 0.
For assay [2], the target named is CD19-targeting first-generation 19z1 CAR. Kind of assay: flow cytometry on CAR+ PG13 fibroblasts, FL2-H PE against FL1-H FITC (no staining), live gate, 7308 events; lower left panel, sample line '19z1-19E9-PE 1 to 1000', same position as 19z1 in FIG. 18A and 18C; first panel (PG13 sample line) in the same gate: 0.
For assay [3] the target is unchanged. Nature of the assay: flow cytometry on PG13 fibroblasts expressing the 19z1 CAR (panel title '19z1', sample line '19z 1-12D11-H'), 12D11 detected with anti-hamster IgG FITC, FL1-H FITC against FL2-H PE, live gate, 7334 events; parental PG13 cells in the same gate: 0.85.
Assay [4] deals with first-generation PSMA-targeting Pz1 CAR. Kind of assay: flow cytometry on PG13 fibroblasts expressing the Pz1 CAR (panel title 'PZ1', sample line 'PZ1-12D11-H'), 12D11 detected with anti-hamster IgG FITC, FL1-H FITC against FL2-H PE, live gate, 9102 events; parental PG13 cells in the same gate: 0.85.
Assay [5] has as its target CD19-targeting second-generation 1928z CAR. Nature of the assay: flow cytometry on PG13 fibroblasts expressing the 1928z CAR (panel title '19-28z1 cells', sample line '1928z 1-12D11-H'), 12D11 detected with anti-hamster IgG FITC, FL1-H FITC against FL2-H PE, live gate, 9569 events; parental PG13 cells in the same gate: 0.85.

B1: 19E3 monoclonal antibody (antibody, V domains shown)
VH: EVQLVESGGGLVQTGKSLKLSCEASGFTFSDFDMNWVRQAPGKGLEWVAYINGGSGVIFYADAVKGRFTISRDNAKNLLFLQMNNLKSEDSAMYYCAREELGRRYYFDYWGQGTMVTVSS
VL: SQPVLTQSPSASASLSGSVKLTCTLSSEHSSYNIAWYQQHPDKAPKYVMYLKSDGSHFKGDGIPDRFSGSSSGAHRYLSISNVQSEDDATYFCGAGYTISGQYGYVFDSGTQLTVLG
Consider B1, for which the values for the gate frequency (percent of live events in the PE-positive gate) in assay [1] and in assay [2] were 0.011 and 99.2, respectively.

B2: 12D11 monoclonal antibody (antibody, V domains shown)
VH: AVRLLESGGGLVKPEGALKLSCVASGFDLSDYFMGWVRQAPGKGLEWVAHIYPQSYDYATYYSGSVQGRFTISRDDSRSMVYLQMNNLRTEDTATYYCTKDGDVGFWGQGTMVTVSS
VL: DIQVTQSPTLLSASLGDKVTINCLASQDISNELNWYQQKSGQSPTLLIYNGKNLQSGVPSRFSGQYSGRSFTISINNVEPEDVATYFCLQHYSFPLTFGDGSKLEMKR
In the case of B2, the gate frequency (percent of live events in the FITC-positive gate) in assay [3] is 96.3; in assay [4], 76.4; in assay [5] it was 67.9.

(Values after patent US20260193378A1.)
